Results as given in article PMC6344859, “Structural basis for acceptor RNA substrate selectivity of the 3′ terminal uridylyl transferase Tailor”.

B1: CACAGU (ssRNA)
RNA: CACAGU
B2: U6 (ssRNA)
RNA: UUUUUU

How the values were obtained:
Tailor (DmTailor180-560) [1] = target: T1, Tailor (DmTailor180-560) (Drosophila melanogaster, UniProt Q9VI58 180-560); experiment: crystal structure (1.85 A); two Mg2+; Crystallization conditions not in material; protein stock 20 mM HEPES pH 7.0, 150 mM KCl, 2 mM MgCl2, 1 mM DTT; details: protein: recombinant; tags: none after TEV cleavage (His6-MBP removed); single strand
T1 sequence (Q9VI58 180-560): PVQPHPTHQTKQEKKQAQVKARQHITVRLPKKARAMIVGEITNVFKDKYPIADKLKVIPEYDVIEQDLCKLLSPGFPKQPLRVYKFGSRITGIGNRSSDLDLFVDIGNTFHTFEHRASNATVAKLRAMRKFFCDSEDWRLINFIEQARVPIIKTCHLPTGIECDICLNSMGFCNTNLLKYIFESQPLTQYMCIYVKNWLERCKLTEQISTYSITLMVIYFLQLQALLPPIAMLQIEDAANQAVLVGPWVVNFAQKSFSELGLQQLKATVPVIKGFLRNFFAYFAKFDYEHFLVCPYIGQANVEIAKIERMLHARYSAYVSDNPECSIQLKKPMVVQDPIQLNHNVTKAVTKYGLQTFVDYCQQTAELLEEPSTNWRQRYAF

Tailor (DmTailor180-560) [2] = target: T1, Tailor (DmTailor180-560); experiment: crystal structure (2.0 A); two Mg2+; Crystallization conditions not in material; protein stock 20 mM HEPES pH 7.0, 150 mM KCl, 2 mM MgCl2, 1 mM DTT; details: protein: recombinant; tags: none after TEV cleavage (His6-MBP removed); single strand

| Binder | binding result (Tailor (DmTailor180-560) [1]) | binding result (Tailor (DmTailor180-560) [2]) |
| --- | --- | --- |
| B1 | binds |  |
| B2 |  | binds |
